Reference: US20150246947A1 (BAXALTA, published 2015)
Where two headings read alike, the source gives them in different places. Non-standard residues stand in square brackets, D forms with d. 400Mal‑PEG = 40 kD PEG moiety attached via maleimide; Cys(Me-400MA) = not defined here

T1: human GAS6 (human, UniProt Q14393 49-678, limits assumed)
T1 construct: Immobilized on the Biacore chip; also called protein encoded by the Growth Arrest Specific-6 gene; anti-target
T1 sequence (looked up): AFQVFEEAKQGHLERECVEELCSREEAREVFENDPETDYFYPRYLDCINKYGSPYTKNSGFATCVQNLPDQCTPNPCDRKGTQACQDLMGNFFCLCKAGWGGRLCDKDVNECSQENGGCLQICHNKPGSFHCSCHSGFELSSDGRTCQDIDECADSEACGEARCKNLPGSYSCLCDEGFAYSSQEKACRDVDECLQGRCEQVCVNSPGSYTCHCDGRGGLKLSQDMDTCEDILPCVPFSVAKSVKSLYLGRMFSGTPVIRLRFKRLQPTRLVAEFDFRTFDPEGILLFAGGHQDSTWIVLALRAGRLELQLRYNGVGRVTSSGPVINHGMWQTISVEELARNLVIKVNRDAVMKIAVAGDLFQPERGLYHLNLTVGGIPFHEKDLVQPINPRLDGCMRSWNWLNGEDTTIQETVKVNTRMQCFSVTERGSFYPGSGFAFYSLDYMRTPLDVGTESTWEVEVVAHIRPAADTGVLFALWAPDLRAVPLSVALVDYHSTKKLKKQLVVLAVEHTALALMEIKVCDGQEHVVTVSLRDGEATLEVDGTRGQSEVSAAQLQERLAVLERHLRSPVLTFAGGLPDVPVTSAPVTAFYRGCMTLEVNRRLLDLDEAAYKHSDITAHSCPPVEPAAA

T2: human Protein S (UniProt P07225 42-676)
T2 chain: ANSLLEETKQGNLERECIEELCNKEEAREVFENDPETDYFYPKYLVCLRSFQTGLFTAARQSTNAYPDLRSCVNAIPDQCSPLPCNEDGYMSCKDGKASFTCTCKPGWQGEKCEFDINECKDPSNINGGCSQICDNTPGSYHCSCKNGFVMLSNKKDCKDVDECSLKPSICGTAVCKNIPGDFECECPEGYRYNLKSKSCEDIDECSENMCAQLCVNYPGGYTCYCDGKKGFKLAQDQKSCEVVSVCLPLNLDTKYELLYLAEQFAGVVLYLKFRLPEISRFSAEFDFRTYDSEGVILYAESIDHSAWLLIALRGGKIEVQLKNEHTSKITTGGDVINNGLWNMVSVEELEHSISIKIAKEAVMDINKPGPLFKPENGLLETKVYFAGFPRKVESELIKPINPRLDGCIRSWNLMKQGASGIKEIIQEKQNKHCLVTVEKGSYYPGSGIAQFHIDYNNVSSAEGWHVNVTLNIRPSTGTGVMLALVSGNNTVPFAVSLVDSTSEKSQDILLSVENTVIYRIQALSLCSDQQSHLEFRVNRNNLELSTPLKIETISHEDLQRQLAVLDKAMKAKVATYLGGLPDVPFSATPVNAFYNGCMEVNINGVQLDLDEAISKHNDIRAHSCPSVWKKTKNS

T3: human Protein S (human, UniProt P07225 42-676)
T3 construct: Called 'full length Protein S' / 'human full-length Protein S'; It was coated on plates (ELISA), Eu-labeled (LANCE) or immobilized on a chip (Biacore); also called PS; full length Protein S
T3 sequence: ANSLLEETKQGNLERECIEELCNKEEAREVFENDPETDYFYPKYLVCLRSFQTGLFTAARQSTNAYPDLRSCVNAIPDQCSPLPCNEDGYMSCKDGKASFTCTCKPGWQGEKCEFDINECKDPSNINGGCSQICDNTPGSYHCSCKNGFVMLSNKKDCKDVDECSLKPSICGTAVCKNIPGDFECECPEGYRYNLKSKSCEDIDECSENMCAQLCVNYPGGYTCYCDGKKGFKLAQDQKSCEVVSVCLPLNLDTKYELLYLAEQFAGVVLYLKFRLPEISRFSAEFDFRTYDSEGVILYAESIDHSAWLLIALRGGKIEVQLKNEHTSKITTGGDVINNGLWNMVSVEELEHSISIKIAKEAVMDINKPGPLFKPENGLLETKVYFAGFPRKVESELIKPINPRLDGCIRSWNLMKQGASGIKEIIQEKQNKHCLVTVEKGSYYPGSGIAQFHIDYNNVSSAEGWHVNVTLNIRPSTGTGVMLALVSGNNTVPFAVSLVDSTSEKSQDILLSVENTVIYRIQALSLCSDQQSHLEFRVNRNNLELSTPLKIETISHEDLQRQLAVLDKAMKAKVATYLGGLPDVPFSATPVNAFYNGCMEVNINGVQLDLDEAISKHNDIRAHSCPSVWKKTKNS


Legend:
human GAS6 = target: T1, human GAS6; assay: method not restated (Biacore in Example 3)
Summary of the method: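 Binding to the anti-target human GAS6 was tested by surface plasmon resonance (Biacore), with 1000 RU GAS6 immobilized on a […] chip. Peptides were injected at various concentrations in HBS-buffer with 3 mM CaCl₂ and 1% DMSO, and the chip was regenerated with 4 M MgCl₂. Kinetic fitting of the GAS6 signals was error prone, so sensorgrams were reviewed visually to estimate anti-target binding.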

human Protein S [1] = target: T2, human Protein S; assay: LANCE competition
Summary of the method: (§1)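 IC50 was derived by non-linear regression of the acceptor emission in a LANCE time-resolved FRET competition assay using europium-labelled Protein S, ULight-labelled streptavidin, a biotinylated tracer peptide and three-fold titrations of unlabelled test peptide. Reactions of 50 µl contained 10 nM Protein S, 100 nM streptavidin and 300 nM tracer at final concentration (2 nM Protein S and 60 nM tracer on a Tecan F500), were kept 1 hour at room temperature, and were read at Ex 340 nm, Em 665 nm.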

human Protein S [2] = target: T3, human Protein S; assay: Biacore (SPR), Protein S immobilized
Summary of the method: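 Human full-length Protein S was immobilized at 1000 RU on a […] chip in a Biacore 3000 or Biacore T200 instrument. Peptides at various concentrations in HBS-buffer containing 3 mM CaCl₂ and 1% DMSO were injected over the surface, and the chip was regenerated with 4 M MgCl₂ in HBS-buffer. Binding kinetics were determined by surface plasmon resonance: kon and koff were obtained by fitting sensorgrams to a Langmuir binding model, and Kd was calculated from these rate constants.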

human Protein S [3] = target: T3, human Protein S; assay: cell-based or functional assay
human Protein S [4] = target: T3, human Protein S; assay: LANCE TR-FRET; peptide added to preformed C4BP/Protein S complex; competitor C4BP
Method: To investigate the effect of the peptides described herein on PS/C4BP complexes, a LANCE IC50 assay was established using methods similar to those described above. JBS2572 or JBS3216 was added to a preformed C4BP/PS complex. Changes in the complex concentration were followed by recording the TR-FRET signal. For both peptides, a time- and concentration-dependent dissociation of the C4BP/PS complex was observed. […] The time-dependency of the complex reduction was similar for both peptides. After two hours of incubation in the presence of 100 nM JBS2572 or JBS3216, the C4BP/PS complex was reduced to 60% and 50%, respectively. In addition, binding of biotinylated JBS2572 to Protein S was inhibited by C4BP in the LANCE IC50 assay. Pull-down experiments where JBS2697 was coupled to streptavidin sepharose and incubated for one hour at room temperature with (a) Protein S (1.6 pmol) (b) C4BP (8.5 pmol) and (c) Protein S (1.6 pmol)+C4BP (8.5 pmol) supported the results from the modified LANCE IC50 assay. JBS2697 interacted with free Protein S only from experiment (a) with Protein S alone and from experiment (c) with the C4BP-Protein S mixture.

human Protein S [5] = target: T2, human Protein S; assay: LANCE competition
Summary of the method: as §1

Binder | binding result (human GAS6) | IC50 (human Protein S [1]) | Kd (human Protein S [2]) | koff (human Protein S [2]) | kon (human Protein S [2]) | CAT EC50, plasmas from three individuals with severe hemophilia A (human Protein S [3]) | IC50 (human Protein S [4]) | CAT EC50, human hemophilia A patient plasma (human Protein S [3]) | IC50 (human Protein S [5]) | CAT EC50 (human Protein S [3])
Ac-EYIVTAGWYDYNKDIYYEFK[Cys(Me-400MA)]-NH2 (reading uncertain, JBS3206 monomer comprising a 40 kD PEG moiety) [JBS3322] | no binding (tested: 1 µM) | 4.5 nM | 3.6 nM | 0.000278 s⁻¹ | 78000 M⁻¹ s⁻¹ | < 100 nM |  |  |  | 
Ac-EYYVSAGWYDYNTDTYYEFE-NH2 [JBS3216] |  |  | 0.2 nM | 0.000233 s⁻¹ | 1.14e+06 M⁻¹ s⁻¹ |  | 0.3 nM | 85 nM | 0.7 nM | 
Ac-TGLVSAGWYDYNFDHYREFTC-NH2 (not fully specified (residue 21); also: tetramer: four peptides on a 40 kD four-arm PEG core) [JBS3179] | no binding (tested: 1 µM) |  | 0.4 nM | 0.000179 s⁻¹ | 410000 M⁻¹ s⁻¹ | < 100 nM |  |  | 8 nM | 6 nM
Ac-EYYVSAGWYDYNTDTYYEFEC(400Mal‑PEG)-NH2 (JBS3319 conjugated to a 40 kD PEG moiety) [JBS3318] | no binding (tested: 1 µM) | 2.8 nM | 1.4 nM | 0.000213 s⁻¹ | 152000 M⁻¹ s⁻¹ | < 100 nM |  |  |  | 
